Measured values as given in the supplement of paper PMC7125110.
± gives the standard error. For some of these results: This sample holds only a part of the variants without activity.

B1: glmS ribozyme (parent)
chain: AUAAAAGCGCCAGAACUACAGAAAUGUAGUUGACGAGGAGGAGGUUUAUCGAAUUUUCGGCGGAUGCCUCCAAA

How the values were obtained:
Conditions in all cases: with glucosamine-6-phosphate
glucosamine-6-phosphate [1] = variants of: B1; assay: kcat; higher = faster cleavage; RNA array
Method in brief: (§1)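 Tiles bearing barcoded ribozyme variants, transcribed in situ by E. coli RNA polymerase on sequenced MiSeq chips, were imaged over ~14 h at 37 °C using a hybridised Cy3 probe. Glucosamine-6-phosphate was supplied at 40 μM to 10 mM in HEPES/KCl/Mg(OAc)2 buffer. kobs came from one- or two-exponential decay fits to normalised per-tile medians, and weighted Michaelis–Menten fits then provided kcat and KM.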

glucosamine-6-phosphate [2] = variants of: B1; assay: KM; higher = weaker cofactor use; RNA array
Method in brief: as §1

glucosamine-6-phosphate [3] = variants of: B1; assay: self-cleavage kobs at 40 uM GlcN6P; higher = faster cleavage; RNA array
Method in brief: as §1

glucosamine-6-phosphate [4] = variants of: B1; assay: self-cleavage kobs at 160 uM GlcN6P; higher = faster cleavage; RNA array
Method in brief: as §1

glucosamine-6-phosphate [5] = variants of: B1; assay: self-cleavage kobs at 640 uM GlcN6P; higher = faster cleavage; RNA array
Method in brief: as §1

glucosamine-6-phosphate [6] = variants of: B1; assay: self-cleavage kobs at 2500 uM GlcN6P; higher = faster cleavage; RNA array
Method in brief: as §1

glucosamine-6-phosphate [7] = variants of: B1; assay: self-cleavage kobs at 10000 uM GlcN6P; higher = faster cleavage; RNA array
Method in brief: as §1

Variant | kcat (glucosamine-6-phosphate [1]) [s⁻¹] | KM (glucosamine-6-phosphate [2]) [µM] | self-cleavage kobs at 40 uM GlcN6P (glucosamine-6-phosphate [3]) [s⁻¹] | self-cleavage kobs at 160 uM GlcN6P (glucosamine-6-phosphate [4]) [s⁻¹] | self-cleavage kobs at 640 uM GlcN6P (glucosamine-6-phosphate [5]) [s⁻¹] | self-cleavage kobs at 2500 uM GlcN6P (glucosamine-6-phosphate [6]) [s⁻¹] | self-cleavage kobs at 10000 uM GlcN6P (glucosamine-6-phosphate [7]) [s⁻¹]
G29U U46G | 0.00127 ± 0.00012 | 2110 ± 340 | 3.07e-05 ± 9.8e-06 | 9.52e-05 ± 2e-05 | 0.000259 ± 5e-05 | 0.000689 ± 0.00011 | 0.00106 ± 0.00013
U49C C61U | 1.01e-05 ± 1.5e-06 | – | – | – | – | – | < 1e-05
A15G A39U | 0.0505 ± 0.019 | 4740 ± 2300 | 0.0006 ± 7.9e-05 | 0.00146 ± 0.00026 | 0.00551 ± 0.001 | 0.0136 ± 0.0025 | 0.0387 ± 0.0051
C50U U69A | 2.06e-05 ± 3.7e-06 | – | – | – | – | – | –
G35C C70A | < 1e-05 | – | < 1e-05 | – | < 1e-05 | – | –
A15U A42U | 4.62e-05 ± 4.1e-06 | 1830 ± 680 | – | – | – | – | 3.96e-05 ± 1e-05
C10U U54G | < 1e-05 | – | < 1e-05 | – | – | – | –
U56G U69G C71U | 4.56e-05 ± 1.5e-05 | – | – | 8.5e-05 ± 2.7e-05 | 3.88e-05 ± 1.7e-05 | 5.83e-05 ± 2e-05 | –
C10G C11U C67G | 3.06e-05 ± 8.7e-06 | – | – | – | 5.14e-05 ± 2.4e-05 | – | –
C16U A42U A64G | 0.000175 ± 4.3e-05 | – | – | – | – | 7.15e-05 ± 1.6e-05 | 0.000122 ± 2.6e-05
G32U U46A | 0.000102 ± 7.4e-06 | 4100 ± 670 | – | – | – | 3.94e-05 ± 1.1e-05 | 7.21e-05 ± 1.5e-05
G29U U65A | 0.000516 ± 4.5e-05 | 2110 ± 340 | – | 3.8e-05 ± 1.4e-05 | 0.000114 ± 1.9e-05 | 0.000323 ± 5.9e-05 | 0.000411 ± 6e-05
A48U C58G | 1.01e-05 ± 4e-06 | – | – | – | – | – | –
U69G C71U | 4.96e-05 ± 1.4e-05 | – | – | 7.88e-05 ± 2.1e-05 | 9.65e-05 ± 2.5e-05 | 6.25e-05 ± 1.2e-05 | 3.11e-05 ± 9.4e-06
A39C A53U | 0.00502 ± 0.0011 | 2730 ± 760 | 7.74e-05 ± 7.6e-06 | 0.000227 ± 3.4e-05 | 0.000952 ± 0.00013 | 0.00344 ± 0.00044 | 0.00367 ± 0.00039
G40U U69G | < 1e-05 | 1720 ± 260 | < 1e-05 | < 1e-05 | < 1e-05 | – | –
G13U G29C | 0.000126 ± 2.5e-05 | – | – | – | 4.72e-05 ± 1.7e-05 | 0.00015 ± 2.3e-05 | 0.000107 ± 1.4e-05
C50G G62U U69G | 8.66e-05 ± 2.1e-05 | – | 3.4e-05 ± 1.2e-05 | 0.000155 ± 4.5e-05 | 7.83e-05 ± 2.3e-05 | 0.000155 ± 4.7e-05 | 7.41e-05 ± 1.6e-05

Variant | kcat (glucosamine-6-phosphate [1]) [s⁻¹] | KM (glucosamine-6-phosphate [2]) [µM] | self-cleavage kobs at 40 uM GlcN6P (glucosamine-6-phosphate [3]) [s⁻¹] | self-cleavage kobs at 160 uM GlcN6P (glucosamine-6-phosphate [4]) [s⁻¹] | self-cleavage kobs at 640 uM GlcN6P (glucosamine-6-phosphate [5]) [s⁻¹] | self-cleavage kobs at 2500 uM GlcN6P (glucosamine-6-phosphate [6]) [s⁻¹] | self-cleavage kobs at 10000 uM GlcN6P (glucosamine-6-phosphate [7]) [s⁻¹]
U31C C71U | 0.00657 ± 0.0031 | – | 0.000177 ± 1.7e-05 | 0.000289 ± 3.6e-05 | 0.00111 ± 0.00013 | 0.00536 ± 0.00083 | 0.00504 ± 0.00056
G29U U45G | 0.000648 ± 0.00013 | 1660 ± 680 | – | 3.73e-05 ± 1.2e-05 | 0.000217 ± 2.8e-05 | 0.00064 ± 0.00013 | 0.000522 ± 5.5e-05
A39G C50U | 0.000157 ± 2.6e-05 | 3430 ± 1200 | – | – | – | 6.91e-05 ± 1.4e-05 | 0.000115 ± 2.5e-05
C58U C67A | 3.03e-05 ± 4.9e-06 | – | < 1e-05 | – | – | – | 3.07e-05 ± 7.8e-06
U30A G66A | 0.0034 ± 0.00044 | 1870 ± 370 | 8.19e-05 ± 1e-05 | 0.00021 ± 5.2e-05 | 0.000751 ± 0.00018 | 0.00197 ± 0.00024 | 0.0029 ± 0.00037
U46A C67G | 0.000319 ± 2.1e-05 | 2290 ± 290 | – | – | 6.75e-05 ± 1.1e-05 | 0.000187 ± 3.5e-05 | 0.000254 ± 3.3e-05
A12G A15U | 0.000449 ± 5.3e-05 | 5850 ± 1100 | – | – | 4.86e-05 ± 6.8e-06 | 0.000123 ± 1.6e-05 | 0.000288 ± 2.6e-05
A12C C58G | 0.0002 ± 2.6e-05 | 1730 ± 640 | – | – | 6.55e-05 ± 1.8e-05 | 0.000106 ± 1.8e-05 | 0.000177 ± 2.2e-05
A14G A36U | 1.56e-05 ± 2.2e-07 | – | < 1e-05 | < 1e-05 | – | – | –
G13U A39U | 0.0016 ± 0.0003 | 4770 ± 1400 | 3.33e-05 ± 1.6e-05 | 4.9e-05 ± 1.9e-05 | 0.000197 ± 3.6e-05 | 0.000513 ± 8.1e-05 | 0.00112 ± 0.00016
C10G U54A | < 1e-05 | – | < 1e-05 | – | – | – | –
C10U G32A | 2.81e-05 ± 1.1e-06 | – | < 1e-05 | – | – | 2.53e-05 ± 9.9e-06 | 2.81e-05 ± 7.9e-06
U55C G60A | 1.48e-05 ± 1.8e-06 | – | < 1e-05 | – | – | – | –
G29A A48C | 3.13e-05 ± 8.9e-06 | – | – | – | – | 3.4e-05 ± 1.6e-05 | –
A39G A52U | 0.00125 ± 0.00024 | – | < 1e-05 | – | 4.99e-05 ± 2.1e-05 | 0.000222 ± 4.6e-05 | 0.00054 ± 7.6e-05
G62A C68U | < 1e-05 | – | – | – | – | – | < 1e-05
C11A G37A | < 1e-05 | – | – | – | – | – | –
U47A C70G | 0.000131 ± 1.7e-05 | – | – | 9.75e-05 ± 2.2e-05 | 0.00011 ± 1.3e-05 | – | 0.000128 ± 2.5e-05
